Laboratory results as given in patent US20230295310A1 (ABCELLERA BIOLOGICS, published 2023).

What was measured:
[1] = target: T1, human CD3 expressed on cells (human, UniProt P07766 23-207; P04234 22-171; P09693 23-182); test: flow cytometry, 25 nM
T1 construct: whole, on cells; CD3 complex on Jurkat cells and on human primary T cells
Experimental: (§1) Purified antibodies were confirmed to bind CD3 expressed on cells using the CytoFLEX S or LX flow cytometers (Beckman Coulter). Antibodies were diluted to 25 nM in FACS buffer (PBS+2% FBS) and were incubated with CD3-expressing cells for 30 minutes at 4° C. […] The median fluorescence intensity of the binding signal for each antibody was normalized to the isotype control to obtain a fold over isotype value. An antibody with a fold over isotype (FOI) of ≥10 was considered to be positive for binding.

[2] = target: T2, cynomolgus monkey CD3 expressed on primary T cells (cynomolgus monkey, UniProt Q95LI5 22-198; Q95LI8 22-171; Q95LI7 23-181); test: flow cytometry, 25 nM, cyno primary T cells
T2 construct: whole, on cells; CD3 complex on purified cynomolgus monkey T cells; also called cyno CD3
Experimental: as §1

T2 sequence (Q95LI5 22-198, chain 1 of 3): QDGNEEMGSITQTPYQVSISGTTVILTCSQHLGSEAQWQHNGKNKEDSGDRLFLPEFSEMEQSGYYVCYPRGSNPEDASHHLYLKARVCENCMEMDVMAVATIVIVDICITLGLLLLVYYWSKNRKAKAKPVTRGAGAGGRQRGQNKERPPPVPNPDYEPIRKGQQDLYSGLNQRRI
T2 sequence (Q95LI8 22-171, chain 2 of 3): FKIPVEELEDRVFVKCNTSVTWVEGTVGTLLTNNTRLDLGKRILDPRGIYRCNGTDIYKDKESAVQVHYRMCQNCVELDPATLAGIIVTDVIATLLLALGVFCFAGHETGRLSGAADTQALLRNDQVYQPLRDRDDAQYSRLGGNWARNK
T2 sequence (Q95LI7 23-181, chain 3 of 3): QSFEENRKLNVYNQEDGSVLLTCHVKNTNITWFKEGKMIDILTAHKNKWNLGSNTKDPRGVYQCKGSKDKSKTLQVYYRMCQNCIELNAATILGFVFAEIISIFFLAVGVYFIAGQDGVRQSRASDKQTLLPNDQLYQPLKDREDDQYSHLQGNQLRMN
T1 sequence (P07766 23-207, chain 1 of 3): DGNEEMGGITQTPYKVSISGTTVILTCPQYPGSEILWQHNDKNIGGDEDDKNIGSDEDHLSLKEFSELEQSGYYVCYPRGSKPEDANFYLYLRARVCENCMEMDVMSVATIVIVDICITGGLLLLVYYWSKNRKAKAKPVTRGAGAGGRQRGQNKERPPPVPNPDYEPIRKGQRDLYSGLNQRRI
T1 sequence (P04234 22-171, chain 2 of 3): as the sequence (Q95LI8 22-171, chain 2 of 3) above, with V5I, K15N, V20I, T32S, N33D, N34I, A64T, N74S, L83V, R141H counted along it
T1 sequence (P09693 23-182, chain 3 of 3): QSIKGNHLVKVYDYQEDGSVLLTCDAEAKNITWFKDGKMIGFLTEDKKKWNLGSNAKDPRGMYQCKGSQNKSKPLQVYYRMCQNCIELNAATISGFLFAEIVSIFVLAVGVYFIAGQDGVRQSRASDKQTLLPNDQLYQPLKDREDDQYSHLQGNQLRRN

B1: mAb 81 (antibody, V domains shown)
VH: QVQLAESGGGVVQPGRSLRLSCAASGFTFSGYGMHWVRQAPGKGLDWVAIIYYDGKNKYYADSVKGRFTISRDNSKNTLYLQMNSLRAEDTAVYYCARGGGYNWFDPWGQGTLVTVSS
VL: DIQMTQSPSSLSASVGDRVTITCRPSQTISNYLNWYQQDPGKAPKLLIYAASSLQSGVPSRFSGSGSGTDFTLTISSLQPEDFATYYCQQSYSTPITFGRGTRLEIK
- Human primary T Cell Binding (FOI) [1]: 158 FOI
- Jurkat Cell Binding (FOI) [1]: 165 FOI
- binding result [2]: no binding (tested: FOI >=10 = positive)

B2: mAb 83 (antibody, V domains shown)
VH: QVQLVESGGGVVQPGRSLRLSCAASGFTFSGYGMHWVRQAPGKGLDWVAIIYYNGNNKYYADSVKGRFTISRDNSKNTLYLQMNSLRAEDTAVYYCARGGGYNWFDPWGQGTLVIVSS
VL: DIQMTQSPSSLSASVGDRVTITCRPSQIIINYLNWYQQKPGKAPKLLIYAASSLQSGVPSRFSGSGSGTDFTLTISSLQPEDFATYYCQQSYSTPFTFGRGTRLEIK
- Human primary T Cell Binding (FOI) [1]: 173 FOI
- Jurkat Cell Binding (FOI) [1]: 161 FOI
- binding result [2]: no binding (tested: FOI >=10 = positive)

B3: mAb 86 (antibody, V domains shown)
VH: QVQLAESGGGVVQPGRSLRLSCEASGFTFSGYGMHWVRQAPGKGLDWVAIIYYDGKNKYYADSVKGRFTISRDNSKNTLYLQMNSLRAEDTAVYYCARGGGYNWFDPWGQGTLVTVSS
VL: DIQMTQSPSSLSASVGDRVTITCRPSQTISKYLNWYQQKPGKAPKLLIYAASSLQSGVPSRFSGSGSGTDFTLTISSLQPEDFATYYCQQSYITPITFGRGTRLEIK
- Human primary T Cell Binding (FOI) [1]: 189 FOI
- Jurkat Cell Binding (FOI) [1]: 175 FOI
- binding result [2]: no binding (tested: FOI >=10 = positive)

B4: mAb 85 (antibody, V domains shown)
VH: QVQLVQSGAEVKKPGASVKVSCKASGYTVTGYYMHWVRQAPGQGLEWMGWINPNSGGTNFAQNFQGRVTMTRDTSISTFYMDLNRLRSDDTAVYYCARGGAPVSYWFFDLWGRGTLVTVSS
VL: DIQMTQSPSSLSASVGDRVTITCRASQSISRYLNWYQQKPGKAPKVLIYNTSSLKSGVPSRFSGSGSGTDFTLTISSLQPEDFGTFYCQQSHSTPFTFGPGTKVDIK
- Human primary T Cell Binding (FOI) [1]: 195 FOI
- Jurkat Cell Binding (FOI) [1]: 181 FOI
- binding result [2]: no binding (tested: FOI >=10 = positive)

B5: mAb 66 (antibody, V domains shown)
VH: QVQLVQSGAEVKKPGASVKVSCKASGYTVTGYYMHWVRQAPGQGLEWMGWINPNSGGTNFAQNFQGRVTMTRDTSISTFYMDLSRLRSDDTAVYYCARGGAPVSYWFFDLWGRGTLVTVSS
VL: DIQMTQSPSSLSASVGDRVTITCRASQSISRYLNWYQQKPGKAPKVLIYNTSSLKSGVPSRFSGSGSGTDFTLTISSLQPEDFATLYCQQSHSTPFTFGPGTKVDIK
- Human primary T Cell Binding (FOI) [1]: 192 FOI
- Jurkat Cell Binding (FOI) [1]: 172 FOI
- binding result [2]: no binding (tested: FOI >=10 = positive)

B6: mAb 79 (antibody, V domains shown)
VH: QVQLVQSGAEVKKPGASVKVSCKASGYIVTGYYMHWVRQAPGHGLEWMGWINPNSGGTNFAQNFQGRVTMTRDTSISTFYMDLNRLTSDDTAVYYCARGGAPVSYWFFDLWGRGTLVTVSS
VL: DIQMTQSPSSLSASVGDRVTITCRASQNINSYLNWYHQKPGKAPKVLIYNTSTLKSGVPSRFSGSGSGTYFTLTISSLQPEDFATFYCQQSHSTPFTFGPGTKVDIK
- Human primary T Cell Binding (FOI) [1]: 199 FOI
- Jurkat Cell Binding (FOI) [1]: 171 FOI
- binding result [2]: no binding (tested: FOI >=10 = positive)

B7: mAb 67 (antibody, V domains shown)
VH: EVQLVESGGDLVQPGRSLRLSCAASGFTFDDCVIHWVRQAPGKGLEWVSGITWNSGRIGYADSVKGRFTISRDNAKNSLYLQMNSLRVEDTALYYCAKEGNYDFWSTYYRGYFDLWGRGTLVTVSS
VL: DIQMTQSPSSLSASVGDRVTITCRASQGIRNDLGWYQQKPGIAPKRLIYAASSLQGGVPLRFSGSGSGTEFTLTISSLQPEDFATYYCLQHNSYPYTFGQGTKLEIK
- Human primary T Cell Binding (FOI) [1]: 72.4 FOI
- Jurkat Cell Binding (FOI) [1]: 70.2 FOI
- binding result [2]: no binding (tested: FOI >=10 = positive)

B8: mAb 71 (antibody, V domains shown)
VH: QVQLVQSGAEVRKPGASVKVSCKASGYTFTKYDVNWVRQAPGQGLEWMGWMNSNNGNIGYAQKFQGRVTMTRKTSISTAYMELSSLRSEDTAVYYCAREGHYDFWRGFYNFDYWGQGTLVTVSS
VL: DIQMTQSPSSLSASVGDRVTITCRASQDIKNDLGWYQQKPGKAPKRLIYAASSLQSGVPSRFSGSGSGTEFTLTISSLQPEDFATYYCLQHNFYPITFGQGTRLEIK
- Human primary T Cell Binding (FOI) [1]: 108 FOI
- Jurkat Cell Binding (FOI) [1]: 100 FOI
- binding result [2]: no binding (tested: FOI >=10 = positive)

B9: mAb 72 (antibody, V domains shown)
VH: EVQLVDSGGGLVQPGGSLRLSCAASGFTFSSYWMSWVRQAPGKGLEWVANIKQDGSEKYYVDSVKGRFTISRDNVKNSLSLEMNSLRAEDTALYYCARDESSSWYWYFDLWGRGTLVTVSS
VL: DIQMTQSPSTLSASVGDRVTITCRASQSISKWLAWYQQKPGKAPKLLIYKASSLENGVPSRFSGSGSGTEFTLTISSLQPDDFATYYCQQYSSYSRTFGQGTKVEIK
- Human primary T Cell Binding (FOI) [1]: 91.4 FOI
- Jurkat Cell Binding (FOI) [1]: 98.7 FOI
- binding result [2]: no binding (tested: FOI >=10 = positive)

B10: mAb 73 (antibody, V domains shown)
VH: EVELVESGGGLVQPGRSLRLSCAASGFTFDDKVMHWVRQAPGKGLEWVSCINWNSGHIGYADSVKGRFTISRDNARTSLYLQMNSLRPEDTALYYCVREGNYDFWSGYYRGFFDLWGRGTLVTVSS
VL: DIQMTQSPSSLSASVGDRVTITCRASQGIRNDLGWYQQKPGKAPKRLIYAASSLQGGVPSRFSGSGSGTEFTLTISSLQPEDFATYYCLQHTSYPFTFGQGTKLEIK
- Human primary T Cell Binding (FOI) [1]: 74.5 FOI
- Jurkat Cell Binding (FOI) [1]: 109 FOI
- binding result [2]: no binding (tested: FOI >=10 = positive)

B11: mAb 74 (antibody, V domains shown)
VH: EVQLVESGGGLVQPGRSLRLSCAASGFTFADYVMHWVRQAPGKGLEWVSGINWNNARIGYVGSVKGRFTISRDNAKNSLYLQMTSLRVEDTALYHCVREGNFDFWSAYYRGFLDLWGRGTLVTVSS
VL: DIQMTQSPSSLSASVGDRVTITCRASQGIRSDLGWYQQKPGKAPKRLIYGASSLQGGVPSRFSGSGSGTEFTLTISSLQPEDFATYYCLQHNSYPYTFGQGTKLEIK
- Human primary T Cell Binding (FOI) [1]: 146 FOI
- Jurkat Cell Binding (FOI) [1]: 151 FOI
- binding result [2]: no binding (tested: FOI >=10 = positive)

B12: mAb 99 (antibody, V domains shown)
VH: QGQLVESGGGVVQPGRSLRLSCAASGFTFRGFGMHWVRQAPGKGLEWVAIIYYDGKNKYYADSVKGRFTISRDNSKNTLYLQMNSLRAEDTAVYYCAKGGGYNWFDPWGQGTLVTVSS
VL: DIQMTQSPSSLSASVGDRVTITCRASQSISTYLNWYQQKPGKAPKLLIYSASSLQSGVPSRFSGSGSGTDFTLTISNLQPEDFAIYYCQRSYSPPFTFGPGTKLDIR
- Human primary T Cell Binding (FOI) [1]: 218 FOI
- Jurkat Cell Binding (FOI) [1]: 198 FOI
- binding result [2]: no binding (tested: FOI >=10 = positive)

B13: mAb 93 (antibody, V domains shown)
VH: QVQLVESGGGVVQPGRSLRLSCAASGFTFRGYGMHWVRQAPGKGLEWVAIIYYNGNNKYYADSVKGRFTISRDNSKNTLYLQMNSLRAEDTAVYYCARGGGYNWFDPWGQGTLVTVSS
VL: DIQMTQSPSSLSASVGDRVTITCRASQSISNYLNWYQQEPGKAPKLLIYTASSLQSGVPSRFSGSGSGTAFTLTISSLQPEDFAIYYCQRSSSPPFTFGPGTKLDIK
- Human primary T Cell Binding (FOI) [1]: 198 FOI
- Jurkat Cell Binding (FOI) [1]: 175 FOI
- binding result [2]: no binding (tested: FOI >=10 = positive)

B14: mAb 97 (antibody, V domains shown)
VH: QGQLVESGGGVVQPGRSLRLSCAASGFTFRGYGMHWVRQAPGKGLEWVAIIYYDGKNKYYADSVKGRFTISRDNSKNTLYLQMNNLRVEDTAVYYCARGGGYNWFDPWGQGTLVTVSS
VL: DIQMTQSPSSLSASIGDRVTITCRASQSISNYLNWYQQKPGKAPKLLIYSASSLQSGVPSRFSGSGSGTDFTLTISNLQPEDFAIYYCQRSYSPPFTFGPGTKLDIR
- Human primary T Cell Binding (FOI) [1]: 211 FOI
- Jurkat Cell Binding (FOI) [1]: 192 FOI
- binding result [2]: no binding (tested: FOI >=10 = positive)

B15: mAb 100 (antibody, V domains shown)
VH: QVQLVESGGGVVQPGRSLRLSCVASGFTFRGYGMHWVRQAPGKGLEWVAIIYYDGKNKYYADSVKGRFTISRDNSKNTLYLQMNSLRVEDTALYYCARGGGYNWFDPWGQGTLVTVSS
VL: DIQMTQSPSSLSASVGDRVTITCRASQSISTYLNWYQQKPGKAPKLLIYTASSLQSGVPSRFSGSGSGTVFTLTISSLQPEDFAIYYCQRSYSPPFTFGPGTRLDIK
- Human primary T Cell Binding (FOI) [1]: 229 FOI
- Jurkat Cell Binding (FOI) [1]: 241 FOI
- binding result [2]: no binding (tested: FOI >=10 = positive)

B16: mAb 101 (antibody, V domains shown)
VH: QGQLVESGGGVVQPGRSLRLSCAASGFTFRGFGMHWVRQAPGKGLEWVAIIYYDGKNKYYADSVKGRFTISRDNSKNMLYLQMNSLRAEDTAVYYCAKGGGYNWFDPWGQGTLVTVSS
VL: DIQMTQSPSSLSASVGDRVTITCRASQSISTYLNWYQQKPGKAPKLLIYSASSLQSGVPSRFSGSGSGTDFTLTISNLQPEDFAIYYCQRSYSPPFTFGPGTKLDIR
- Human primary T Cell Binding (FOI) [1]: 233 FOI
- Jurkat Cell Binding (FOI) [1]: 216 FOI
- binding result [2]: no binding (tested: FOI >=10 = positive)

B17: mAb 95 (antibody, V domains shown)
VH: QAHLVESGGGVVQPGRSLRLSCSASGFTFSGYGMHWVRQAPGKGLEWVALIYFDGRNKYYADSVKGRFTISRDNSKNTLYLQMNSLRAEDTAVYYCARGGGYNWFDPWGQGTLVTVSS
VL: DIQMTQSPSSLSASVGDRVTITCRASQSINNYLSWYQQKPGKAPKLLIYLASNLQSGVPSRFSGSGSGTDFTLTISSLQPEDFATYYCQLSYRSPFTFGPGTKVDVK
- Human primary T Cell Binding (FOI) [1]: 206 FOI
- Jurkat Cell Binding (FOI) [1]: 177 FOI
- binding result [2]: no binding (tested: FOI >=10 = positive)
